Assay results taken from patent publication US20230111102A1 (published 2023).

Target: HEWL (lysozyme, derived from egg albumen, FUJIFILM Wako Pure Chemical Corporation) (UniProt P00698 19-147)
Experiment: SPR (Biacore)

Chain of HEWL (lysozyme, derived from egg albumen, FUJIFILM Wako Pure Chemical Corporation) (P00698 19-147): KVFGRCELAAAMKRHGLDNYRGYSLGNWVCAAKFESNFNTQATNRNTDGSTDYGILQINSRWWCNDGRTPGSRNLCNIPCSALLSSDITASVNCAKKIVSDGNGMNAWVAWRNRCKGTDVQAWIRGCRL

Kd: 18 nM
B1: 1ZVH (VHH, SEQ ID NO: 38) produced by Bacillus subtilis Dpr9ΔsigF (VHH)
VHH: QVQLVESGGGLVQPGGSLRLSCAASGFTFSNDAMTWVRQAPGKALEWVSSITLLGGGIPYYSDTVKGRFTISRDNTKNMLYLQMNSLKPEDTAVYYCAKGFKSDYPRGQGTQVTVSS
